Measurements taken from paper PMC10212922, “A blocking monoclonal antibody reveals dimerization of intracellular domains of ALK2 associated with genetic disorders” (Nature Communications, 2023).
Positions count from the first letter of the chain named.

Experiments:
[1] = biological target: T1, His-tagged and Fc-tagged human ALK2 protein (Sino Biological) (human, UniProt Q04771 21-123); assay: SPR
T1 chain: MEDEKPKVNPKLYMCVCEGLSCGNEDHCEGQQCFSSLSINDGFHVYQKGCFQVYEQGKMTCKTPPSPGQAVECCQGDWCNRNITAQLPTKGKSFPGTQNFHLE

[2] = biological target: T2, His-tagged and Fc-tagged mouse ALK2 protein (Sino Biological) (mouse, UniProt P37172 21-123); assay: SPR
T2 chain: T1 chain with M1V, P10Q

V5-tagged mouse ALK2 = V5-tagged mouse ALK2 (mouse, UniProt P37172); assay: cell-based or functional assay
[3] = biological target: T3, His-tagged and Fc-tagged human ALK2 protein (Sino Biological) (Homo sapiens, UniProt Q04771); assay: SPR; BIAcore T200; anti-histidine antibody immobilised on a CM5 chip, His- and Fc-tagged ALK2 (10 μg/ml) captured; antibody 0.195-50 nM injected, single-cycle kinetics, 300 s association, 1800 s dissociation, 30 μl/min; bivalent analyte model; the methods speak of avidity; details: both partners purified
T3 construct: activin receptor-like kinase 2 (ALK2), human; source: bought: Sino Biological Inc

[4] = biological target: T4, His-tagged and Fc-tagged mouse ALK2 protein (Sino Biological) (Mus musculus, UniProt P37172); assay: as above; details: both partners purified
T4 construct: activin receptor-like kinase 2 (ALK2), mouse, extracellular domain; also called 6x His-tagged mouse ALK2 ECD fused to human IgG Fc; source: bought: Sino Biological Inc

Chain of V5-tagged mouse ALK2 (P37172 21-509): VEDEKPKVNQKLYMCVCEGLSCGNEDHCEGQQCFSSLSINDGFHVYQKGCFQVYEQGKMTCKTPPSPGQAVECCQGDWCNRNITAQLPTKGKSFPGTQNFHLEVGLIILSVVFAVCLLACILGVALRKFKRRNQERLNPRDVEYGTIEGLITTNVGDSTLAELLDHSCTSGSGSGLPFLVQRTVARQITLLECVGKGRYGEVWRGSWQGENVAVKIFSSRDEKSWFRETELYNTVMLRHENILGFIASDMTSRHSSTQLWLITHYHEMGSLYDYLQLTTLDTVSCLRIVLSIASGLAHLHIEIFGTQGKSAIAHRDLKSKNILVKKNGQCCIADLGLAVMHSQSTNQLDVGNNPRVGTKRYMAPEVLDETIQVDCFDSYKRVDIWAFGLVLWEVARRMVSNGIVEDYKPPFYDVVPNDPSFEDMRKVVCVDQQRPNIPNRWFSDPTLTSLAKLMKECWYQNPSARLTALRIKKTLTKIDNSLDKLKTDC

B1: Rm0443, rat anti-ALK2 monoclonal antibody clone #0443 (antibody, V domains shown)
VH: EVQLVESGGGLVQPGRSLKLSCLASGSTFSNYGMKWIRQAPGKGLEWVASISRSSTYIYYADTVKGRFTISRDNARNTLYLQMTSLRSEDTALYYCAAAISTPFYWYFDFWGPGTVVTVSS
VL: EIVLTQSPTTMAASPGEKVTLNCLASSSVSYMTWYQQKSGASPKLWIYGTSNLASGVPNRFSGSGSGTSYSLAISSMEAEDVATYYCLHLTSYPPYTFGAGTKLELK
notes: variable region as in the heavy chain of the chimeric Fab m2 (PDB 7YRU); variable region as in the light chain of the chimeric Fab m2 (PDB 7YRU); Whole rat IgG from the hybridoma; PDB 7YRU holds the rat variable regions on human IgG1 kappa constant regions; source: rat hybridoma, purified from serum-free conditioned medium (protein G column)
[1]
  koff: 0.00576 s⁻¹
[2]
  koff: 0.00563 s⁻¹
V5-tagged mouse ALK2
  IC50 of Rm0443 against ALP activity induced by 300 ng/ml BMP7 in C2C12 cells (endogenous ALK2), day 3: 0.017 µg/mL
  IC50 of Rm0443 against BMP-specific luciferase reporter activity induced by 300 ng/ml BMP7 in C2C12 cells (endogenous ALK2), overnight: 0.216 µg/mL
[3]
  Kd: 5.6 nM
[4]
  Kd: 5.1 nM
